Results as given in patent US20200338203A1 (Bicycle, published 2020).
Numbered stars: 1 amine (or outer) side, 2 acyl side, 3 side chain; on linkers, the order of the positions; unused ones are H or OH. Bridge positions count the residues as written; N and C are the ends. Square brackets hold non-standard residues; d marks the D form. Ends that are not written are not given here. 1Nal = N[C@@H](Cc1cccc2ccccc12)C(=O)O; TBMB = c1c(C[*:1])cc(C[*:3])cc1C[*:2]; Gly(cPent) = N[C@H](C(=O)O)C1CCCC1; hArg = N=C(N)NCCCC[C@H](N)C(=O)O; Tle = CC(C)(C)[C@H](N)C(=O)O; Aib = CC(C)(N)C(=O)O; βAla = NCCC(=O)O; Sar = CNCC(=O)O

B1: Compound 286 (peptide)
peptide: [Sar][Sar]ACAWGPFWCPVNRPGC
modifications: linker 4-11-18 via TBMB
notes: bicyclic peptide
B2: Compound 292 (peptide)
peptide: [Sar][Sar]ACPWGPFWCPANRPGC
modifications: linker 4-11-18 via TBMB
notes: bicyclic peptide
B3: Compound 293 (peptide)
peptide: [Sar][Sar]ACPWGPFWCPVNAPGC
modifications: linker 4-11-18 via TBMB
notes: bicyclic peptide
B4: Compound 296 (peptide)
peptide: [Sar][Sar]ACPW[dA]PFWCPVNRPGC
modifications: linker 4-11-18 via TBMB
notes: bicyclic peptide
B5: Compound 239 (peptide)
peptide: [βAla][Sar][Sar][Sar][Sar][Sar][Sar][Sar][Sar][Sar][Sar]H[dD]VPC[Aib][1Nal]G[Aib]F[1Nal]CP[Tle]NR[Aib]GC
modifications: linker 16-23-30 via TBMB
B6: Compound 241 (peptide)
peptide: {Ac-βAla}-[Sar][Sar][Sar][Sar][Sar][Sar][Sar][Sar][Sar][Sar]H[dD]VPC[Aib][1Nal]G[Aib]F[1Nal]CP[Tle]NR[Aib][dD]C
modifications: linker 15-22-29 via TBMB
B7: Compound 242 (peptide)
peptide: [βAla][Sar][Sar][Sar][Sar][Sar][Sar][Sar][Sar][Sar][Sar]H[dD]VPC[Aib][1Nal]G[Aib]FWCP[Tle]N[hArg]P[dD]C
modifications: linker 16-23-30 via TBMB
B8: Compound 243 (peptide)
peptide: [βAla][Sar][Sar][Sar][Sar][Sar][Sar][Sar][Sar][Sar][Sar]H[dD]VPC[Aib][1Nal]GP[hArg][1Nal]CP[Tle]NR[Aib]GC
modifications: linker 16-23-30 via TBMB
B9: Compound 244 (peptide)
peptide: [βAla][Sar][Sar][Sar][Sar][Sar][Sar][Sar][Sar][Sar][Sar]H[dD]VPC[Aib][1Nal]GP[hArg][1Nal]CP[Tle]N[hArg]P[dD]C
modifications: linker 16-23-30 via TBMB
B10: Compound 246 (peptide)
peptide: [βAla][Sar][Sar][Sar][Sar][Sar][Sar][Sar][Sar][Sar][Sar]H[dD]VPC[Aib]WGP[hArg]WCP[Tle]N[hArg]P[dD]C
modifications: linker 16-23-30 via TBMB
B11: Compound 247 (peptide)
peptide: [βAla][Sar][Sar][Sar][Sar][Sar][Sar][Sar][Sar][Sar][Sar]H[dD]VPC[Aib]WGP[hArg]WCP[Tle]N[hArg]P[dD]C
modifications: linker 16-23-30 via TBMB
B12: Compound 248 (peptide)
peptide: [βAla][Sar][Sar][Sar][Sar][Sar][Sar][Sar][Sar][Sar][Sar]H[dD]VPC[dA][1Nal]G[Aib]F[1Nal]CP[Tle]N[hArg]P[dD]C
modifications: linker 16-23-30 via TBMB
B13: Compound 249 (peptide)
peptide: [βAla][Sar][Sar][Sar][Sar][Sar][Sar][Sar][Sar][Sar][Sar]H[dD]VPCP[1Nal]G[Aib][hArg][1Nal]CP[Tle]NR[Aib]GC
modifications: linker 16-23-30 via TBMB
B14: Compound 250 (peptide)
peptide: [βAla][Sar][Sar][Sar][Sar][Sar][Sar][Sar][Sar][Sar][Sar]H[dD]VPCP[1Nal]G[Aib][hArg][1Nal]CP[Tle]NR[Aib][dD]C
modifications: linker 16-23-30 via TBMB
B15: Compound 251 (peptide)
peptide: [βAla][Sar][Sar][Sar][Sar][Sar][Sar][Sar][Sar][Sar][Sar]H[dD]VPCP[1Nal]G[Aib][hArg][1Nal]CP[Tle]N[hArg]P[dD]C
modifications: linker 16-23-30 via TBMB
B16: Compound 253 (peptide)
peptide: Ac-[Sar][Sar]H[dD]VPCP[1Nal]G[Aib]F[1Nal]CP[Tle]N[hArg]PGC
modifications: linker 7-14-21 via TBMB
B17: Compound 257 (peptide)
peptide: [βAla][Sar][Sar][Sar][Sar][Sar][Sar][Sar][Sar][Sar][Sar]H[dD]VPCP[1Nal]G[Aib]F[1Nal]CP[Tle]N[hArg]PGC
modifications: linker 16-23-30 via TBMB
B18: Compound 258 (peptide)
peptide: {Ac-βAla}-[Sar][Sar][Sar][Sar][Sar][Sar][Sar][Sar][Sar][Sar]H[dD]VPCP[1Nal]G[Aib]F[1Nal]CP[Tle]NR[Aib]GC
modifications: linker 15-22-29 via TBMB
B19: Compound 259 (peptide)
peptide: [βAla][Sar][Sar][Sar][Sar][Sar][Sar][Sar][Sar][Sar][Sar]H[dD]VPCP[1Nal]G[Aib]F[1Nal]CP[Tle]N[hArg][Aib][dD]C
modifications: linker 16-23-30 via TBMB
B20: Compound 260 (peptide)
peptide: {Ac-βAla}-[Sar][Sar][Sar][Sar][Sar][Sar][Sar][Sar][Sar][Sar]H[dD]VPCP[1Nal]G[Aib]F[1Nal]CP[Tle]NR[Aib][dD]C
modifications: linker 15-22-29 via TBMB
B21: Compound 265 (peptide)
peptide: [βAla][Sar][Sar][Sar][Sar][Sar][Sar][Sar][Sar][Sar][Sar]H[dD]VPCP[1Nal]G[Aib]FWCP[Tle]N[hArg]P[dD]C
modifications: linker 16-23-30 via TBMB
B22: Compound 269 (peptide)
peptide: [βAla][Sar][Sar][Sar][Sar][Sar][Sar][Sar][Sar][Sar][Sar]H[dD]VPCPWG[Aib]F[1Nal]CP[Tle]N[hArg]P[dD]C
modifications: linker 16-23-30 via TBMB
B23: Compound 274 (peptide)
peptide: {Ac-βAla}-[Sar][Sar][Sar][Sar][Sar][Sar][Sar][Sar][Sar][Sar]H[dD][Gly(cPent)]PC[Aib][1Nal]G[Aib]F[1Nal]CP[Tle]NR[Aib][dD]C
modifications: linker 15-22-29 via TBMB
B24: Compound 275 (peptide)
peptide: [βAla][Sar][Sar][Sar][Sar][Sar][Sar][Sar][Sar][Sar][Sar]H[dD][Gly(cPent)]PC[Aib]WG[Aib]FWCP[Tle]NR[Aib][dD]C
modifications: linker 16-23-30 via TBMB
B25: Compound 277 (peptide)
peptide: {Ac-βAla}-[Sar][Sar][Sar][Sar][Sar][Sar][Sar][Sar][Sar][Sar]H[dD][Gly(cPent)]PCP[1Nal]G[Aib]F[1Nal]CP[Tle]N[hArg]P[dD]C
modifications: linker 15-22-29 via TBMB
B26: Compound 278 (peptide)
peptide: [βAla][Sar][Sar][Sar][Sar][Sar][Sar][Sar][Sar][Sar][Sar]H[dD][Gly(cPent)]PCP[1Nal]G[Aib]F[1Nal]CP[Tle]NR[Aib]GC
modifications: linker 16-23-30 via TBMB
B27: Compound 279 (peptide)
peptide: [βAla][Sar][Sar][Sar][Sar][Sar][Sar][Sar][Sar][Sar][Sar]H[dD][Gly(cPent)]TCP[1Nal]G[Aib]F[1Nal]CP[Tle]NR[Aib]GC
modifications: linker 16-23-30 via TBMB
B28: Compound 280 (peptide)
peptide: [βAla][Sar][Sar][Sar][Sar][Sar][Sar][Sar][Sar][Sar][Sar]H[dD][Gly(cPent)]TCP[1Nal]G[Aib]F[1Nal]CP[Tle]N[hArg]P[dD]C
modifications: linker 16-23-30 via TBMB
B29: Compound 285 (peptide)
peptide: Ac-[Sar][Sar]H[dD]VTCP[1Nal]G[Aib]F[1Nal]CP[Tle]NR[Aib]GC
modifications: linker 7-14-21 via TBMB
B30: Compound 288 (peptide)
peptide: [Sar][Sar]ACPWAPFWCPVNRPGC
modifications: linker 4-11-18 via TBMB
notes: bicyclic peptide
B31: Compound 291 (peptide)
peptide: [Sar][Sar]ACPWGPFWCAVNRPGC
modifications: linker 4-11-18 via TBMB
notes: bicyclic peptide
B32: Compound 173 (peptide)
peptide: Ac-[Sar][Sar]A[dD]VTCPWGPAWCPVNRPGC
modifications: linker 7-14-21 via TBMB
notes: bicyclic peptide
B33: Compound 151 (peptide)
peptide: ADVHCPWAPFWCPVNRPGCA
modifications: linker 5-12-19 via TBMB
notes: bicyclic peptide
B34: Compound 152 (peptide)
peptide: ADVHCPWGAFWCPVNRPGCA
modifications: linker 5-12-19 via TBMB
notes: bicyclic peptide
B35: Compound 155 (peptide)
peptide: ADVHCPWGPFWCPV[dA]RPGCA
modifications: linker 5-12-19 via TBMB
notes: bicyclic peptide
B36: Compound 156 (peptide)
peptide: ADVHCPWGPFWCPVN[dA]PGCA
modifications: linker 5-12-19 via TBMB
notes: bicyclic peptide

Target: T1, Human EphA2 (Human, UniProt P29317 24-537)
T1 construct: extracellular domain; also called EphA2 (Ecto), Human
T1 sequence (P29317 24-537): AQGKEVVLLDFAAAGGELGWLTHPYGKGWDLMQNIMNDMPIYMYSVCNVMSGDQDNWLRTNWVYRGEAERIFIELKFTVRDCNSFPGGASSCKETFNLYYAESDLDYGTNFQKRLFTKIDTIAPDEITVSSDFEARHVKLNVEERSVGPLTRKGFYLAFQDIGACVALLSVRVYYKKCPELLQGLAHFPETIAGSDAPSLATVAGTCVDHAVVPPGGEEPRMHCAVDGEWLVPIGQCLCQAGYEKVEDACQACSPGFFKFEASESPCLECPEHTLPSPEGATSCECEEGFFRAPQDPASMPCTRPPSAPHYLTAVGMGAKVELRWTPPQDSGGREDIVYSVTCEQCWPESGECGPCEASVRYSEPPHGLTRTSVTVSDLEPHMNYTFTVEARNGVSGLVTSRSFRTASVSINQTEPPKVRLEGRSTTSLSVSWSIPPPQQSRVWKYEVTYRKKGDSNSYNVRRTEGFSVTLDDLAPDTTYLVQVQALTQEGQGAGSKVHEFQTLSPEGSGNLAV
Assay: FP competition; competitor: fluorescent Compound 66
Experimental: (§1) Peptides without a fluorescent tag were tested in competition with a peptide with a fluorescent tag and a known Kd (Table 2). Peptides were diluted to an appropriate concentration in assay buffer as described in the direct binding assay with a maximum of 5% DMSO, then serially diluted 1 in 2. Five μL of diluted peptide was added to the plate followed by 10 μL of human or mouse EphA2 (Table 1) at a fixed concentration which was dependent on the fluorescent peptide used (Table 2), then 10 μL fluorescent peptide added. Measurements were conducted as for the direct binding assay, however the gain was determined prior to the first measurement.

Question: B1 was tested. Which Ki did it give?
Answer: 886 nM

Question: For B2, which Ki is on record?
Answer: 954 nM

Question: Which Ki does the source give for B3 here?
Answer: 711 nM

Question: B4 was tested. Which Ki did it give?
Answer: 1000 nM

Target: T2, Human EphA2 (Ecto) (Human, UniProt P29317 24-537)
T2 construct: extracellular domain
T2 sequence (P29317 24-537): as above
Assay: FP competition; competitor Compound 18

Question: B5 was tested. Which Ki did it give?
Answer: 4.91 nM

Question: Which Ki does the source give for B6 here?
Answer: 2.98 nM

Question: With B7 as the binder, how does the Ki read?
Answer: 7.77 nM

Question: For B8, which Ki is on record?
Answer: 2.83 nM

Question: For B9, which Ki is on record?
Answer: 2.8 nM

Question: With B10 as the binder, how does the Ki read?
Answer: 31.4 nM

Question: With B11 as the binder, how does the Ki read?
Answer: 29.7 nM

Question: How did the Ki turn out when B12 was run?
Answer: 28.4 nM

Question: B13 was tested. Which Ki did it give?
Answer: 1.38 nM

Question: How did the Ki turn out when B14 was run?
Answer: 1.48 nM

Question: How did the Ki turn out when B15 was run?
Answer: 1.93 nM

Question: Which Ki does the source give for B16 here?
Answer: 0.85 nM

Question: With B17 as the binder, how does the Ki read?
Answer: 1.07 nM

Question: With B18 as the binder, how does the Ki read?
Answer: 0.54 nM

Question: With B19 as the binder, how does the Ki read?
Answer: 0.91 nM

Question: B20 was tested. Which Ki did it give?
Answer: 0.75 nM

Question: Which Ki does the source give for B21 here?
Answer: 1.55 nM

Question: B22 was tested. Which Ki did it give?
Answer: 1.11 nM

Question: Which Ki does the source give for B23 here?
Answer: 2.28 nM

Question: B24 was tested. Which Ki did it give?
Answer: 15.9 nM

Question: For B25, which Ki is on record?
Answer: 0.53 nM

Question: How did the Ki turn out when B26 was run?
Answer: 0.46 nM

Question: B27 was tested. Which Ki did it give?
Answer: 0.59 nM

Question: How did the Ki turn out when B28 was run?
Answer: 0.64 nM

Question: Which Ki does the source give for B29 here?
Answer: 1.21 nM

Target: T1, Human EphA2
Assay: FP competition; competitor: fluorescent Compound 18
Experimental: as §1

Question: How did the Ki turn out when B30 was run?
Answer: > 1000 nM

Question: B31 was tested. Which Ki did it give?
Answer: > 1000 nM

Question: With B32 as the binder, how does the Ki read?
Answer: 6.69 nM

Question: For B33, which Ki is on record?
Answer: 394 nM

Question: For B34, which Ki is on record?
Answer: 1.8 nM

Question: B35 was tested. Which Ki did it give?
Answer: 2 nM

Question: With B36 as the binder, how does the Ki read?
Answer: 14.9 nM
